B1: 376_F09 (antibody, V domains shown)
VH: EVQLLESGGGLVQPGGSLRLSCAASGFTFDSYSMHWVRQAPGKGLEWVSSINYNGGYKSYADSVKGRFTISRDNSKNTLYLQMNSLRAEDTAVYYCARAATWHDTHLDYWGQGTLVTVSS
VL: DIQMTQSPSSLSASVGDRVTITCRASQSILTYVNWYQQKPGKAPKLLIYAVTSRASGVPSRFSGSGSGTDFTLTISSLQPEDFATYYCQQSYDTPLTFGGGTKVEIK
B2: 365_E12 (antibody, V domains shown)
VH: EVQLLESGGGLVQPGGSLRLSCAASGFTFSDYGMNWVRQAPGKGLEWVSNINYNGGYTGYADSVKGRFTISRDNSKNTLYLQMNSLRAEDTAVYYCARGANWHDTALDYWGQGTLVTVSS
VL: DIQMTQSPSSLSASVGDRVTITCRASQSILTYLNWYQQKPGKAPKLLIYAATSRASGVPSRFSGSGSGTDFTLTISSLQPEDFATYYCQQSYETPLTFGGGTKVEIK
B3: 366_F02 (antibody, V domains shown)
VH: EVQLLESGGGLVQPGGSLRLSCAASGFTFSSYGMNWVRQAPGKGLEWVSGINYNSGYTGYADSVKGRFTISRDNSKNTLYLQMNSLRAEDTAVYYCARGANWHDTHLDYWGQGTLVTVSS
VL: DIQMTQSPSSLSASVGDRVTITCRASQSILTYLNWYQQKPGKAPKLVIYAATSRHSGVPSRFSGSGSGTDFTLTISSLQPEDFATYYCQQSYDNPLTFGGGTKVEIK
B4: 366_D01 (antibody, V domains shown)
VH: EVQLLESGGGLVQPGGSLRLSCAASGFTFSSYGMHWVRQAPGKGLEWVSSINYNGGYTGYADSVKGRFTISRDNSKNTLYLQMNSLRAEDTAVYYCARAANWHDTHLDYWGQGTLVTVSS
VL: DIQMTQSPSSLSASVGDRVTITCRASQSILTYVNWYQQKPGKAPKLLIYAATSRASGVPSRFSGSGSGTDFTLTISSLQPEDFATYYCQQSYENPLTFGGGTKVEIK
B5: 365_C05 (antibody, V domains shown)
VH: EVQLLESGGGLVQPGGSLRLSCAASGFTFSDYSMNWVRQAPGKGLEWVSGINYNGGYKGYADSVKGRFTISRDNSKNTLYLQMNSLRAEDTAVYYCARGANWHDTHLDYWGQGTLVTVSS
VL: DIQMTQSPSSLSASVGDRVTITCRASQSILTYLNWYQQKPGKAPKLLIYAATSRHSGVPSRFSGSGSGTDFTLTISSLQPEDFATYYCQQSYNSPLTFGGGTKVEIK
B6: 366_E08 (antibody, V domains shown)
VH: EVQLLESGGGLVQPGGSLRLSCAASGFTFSDYSMNWVRQAPGKGLEWVSNINYNGGYTSYADSVKGRFTISRDNSKNTLYLQMNSLRAEDTAVYYCARGANWHDTHLDYWGQGTLVTVSS
VL: DIQMTQSPSSLSASVGDRVTITCRASQSIVTYLNWYQQKPGKAPKLLIYAATSRHSGVPSRFSGSGSGTDFTLTISSLQPEDFATYYCQQSYSNPLTFGGGTKVEIK
B7: 366_A04 (antibody, V domains shown)
VH: EVQLLESGGGLVQPGGSLRLSCAASGFTFSSYGMNWVRQAPGKGLEWVAGINYNGGYTSYADSVKGRFTISRDNSKNTLYLQMNSLRAEDTAVYYCARAANWHDTALDYWGQGTLVTVSS
VL: DIQMTQSPSSLSASVGDRVTITCRASQSILTYLNWYQQKPGKAPKLVIYAATSLASGVPSRFSGSGSGTDFTLTISSLQPEDFATYYCQQSDDSPLTFGGGTKVEIK
B8: 365_G04 (antibody, V domains shown)
VH: EVQLLESGGGLVQPGGSLRLSCAASGFTFDSYSMNWVRQAPGKGLEWVAGINYNGGYTGYADSVKGRFTISRDNSKNTLYLQMNSLRAEDTAVYYCARGANWHDTHLDYWGQGTLVTVSS
VL: DIQMTQSPSSLSASVGDRVTITCRASQSIVSYVNWYQQKPGKAPKLVIYAATSLASGVPSRFSGSGSGTDFTLTISSLQPEDFATYYCQQSYDTPLTFGGGTKVEIK
B9: 365_H07 (antibody, V domains shown)
VH: EVQLLESGGGLVQPGGSLRLSCAASGFTFDSYSMNWVRQAPGKGLEWVSGINYNGGYTSYADSVKGRFTISRDNSKNTLYLQMNSLRAEDTAVYYCARGANWHDTHLDYWGQGTLVTVSS
VL: DIQMTQSPSSLSASVGDRVTITCRASQSISTYVNWYQQKPGKAPKLLIYAATSRHSGVPSRFSGSGSGTDFTLTISSLQPEDFATYYCQQSYENPLTFGGGTKVEIK
B10: 366_B05 (antibody, V domains shown)
VH: EVQLLESGGGLVQPGGSLRLSCAASGFTFSDYSMNWVRQAPGKGLEWVSGINYNSGYKSYADSVKGRFTISRDNSKNTLYLQMNSLRAEDTAVYYCARGANWHDTALDYWGQGTLVTVSS
VL: DIQMTQSPSSLSASVGDRVTITCRASQSISSYLNWYQQKPGKAPKLVIYAVTSRASGVPSRFSGSGSGTDFTLTISSLQPEDFATYYCQQSYELPLTFGGGTKVEIK
B11: 365_F02 (antibody, V domains shown)
VH: EVQLLESGGGLVQPGGSLRLSCAASGFTFSSYSMNWVRQAPGKGLEWVSGINYNGGYKGYADSVKGRFTISRDNSKNTLYLQMNSLRAEDTAVYYCARGANWHDTHLDYWGQGTLVTVSS
VL: DIQMTQSPSSLSASVGDRVTITCRASQSILTYVNWYQQKPGKAPKLLIYAATSRHSGVPSRFSGSGSGTDFTLTISSLQPEDFATYYCQQSYDTPLTFGGGTKVEIK
B12: 367_A03 (antibody, V domains shown)
VH: EVQLLESGGGLVQPGGSLRLSCAASGFTFDSYGMNWVRQAPGKGLEWVAGINYNGGYTSYADSVKGRFTISRDNSKNTLYLQMNSLRAEDTAVYYCARGANWHDTALDYWGQGTLVTVSS
VL: DIQMTQSPSSLSASVGDRVTITCRASQSILTYVNWYQQKPGKAPKLLIYATTSRHSGVPSRFSGSGSGTDFTLTISSLQPEDFATYYCQQSYDSPLTFGGGTKVEIK
B13: 367_A08 (antibody, V domains shown)
VH: EVQLLESGGGLVQPGGSLRLSCAASGFTFDSYGMNWVRQAPGKGLEWVAGINYNGGYTSYADSVKGRFTISRDNSKNTLYLQMNSLRAEDTAVYYCARGANWHDTHLDYWGQGTLVTVSS
VL: DIQMTQSPSSLSASVGDRVTITCRASQSILTYLNWYQQKPGKAPKLLIYAVTSRASGVPSRFSGSGSGTDFTLTISSLQPEDFATYYCQQSYDSPLTFGGGTKVEIK
B14: 366_A08 (antibody, V domains shown)
VH: EVQLLESGGGLVQPGGSLRLSCAASGFTFDDYSMNWVRQAPGKGLEWVSGINYNSGYKGYADSVKGRFTISRDNSKNTLYLQMNSLRAEDTAVYYCARGANWHDTHLDYWGQGTLVTVSS
VL: DIQMTQSPSSLSASVGDRVTITCRASQSIVSYVNWYQQKPGKAPKLVIYAATSRASGVPSRFSGSGSGTDFTLTISSLQPEDFATYYCQQSYNSPLTFGGGTKVEIK
B15: 366_B07 (antibody, V domains shown)
VH: EVQLLESGGGLVQPGGSLRLSCAASGFTFSDYGMNWVRQAPGKGLEWVSGINYNGGYTSYADSVKGRFTISRDNSKNTLYLQMNSLRAEDTAVYYCARGANWHDTHLDYWGQGTLVTVSS
VL: DIQMTQSPSSLSASVGDRVTITCRASQSIVSYLNWYQQKPGKAPKLVIYATTSRASGVPSRFSGSGSGTDFTLTISSLQPEDFATYYCQQSYNSPLTFGGGTKVEIK
B16: 365_G09 (antibody, V domains shown)
VH: EVQLLESGGGLVQPGGSLRLSCAASGFTFSSYSMNWVRQAPGKGLEWVSGINYNGGYKSYADSVKGRFTISRDNSKNTLYLQMNSLRAEDTAVYYCARGANWHDTHLDYWGQGTLVTVSS
VL: DIQMTQSPSSLSASVGDRVTITCRASQSIITYLNWYQQKPGKAPKLVIYAATSRASGVPSRFSGSGSGTDFTLTISSLQPEDFATYYCQQSYNSPLTFGGGTKVEIK
B17: 365_G05 (antibody, V domains shown)
VH: EVQLLESGGGLVQPGGSLRLSCAASGFTFSSYGMNWVRQAPGKGLEWVSGINYNGGYKGYADSVKGRFTISRDNSKNTLYLQMNSLRAEDTAVYYCARGANWHDTALDYWGQGTLVTVSS
VL: DIQMTQSPSSLSASVGDRVTITCRASQSILSYLNWYQQKPGKAPKLVIYAATSLASGVPSRFSGSGSGTDFTLTISSLQPEDFATYYCQQSYENPLTFGGGTKVEIK
B18: 365_F03 (antibody, V domains shown)
VH: EVQLLESGGGLVQPGGSLRLSCAASGFTFDSYSMNWVRQAPGKGLEWVSSINYNGGYTSYADSVKGRFTISRDNSKNTLYLQMNSLRAEDTAVYYCARGANWHDTHLDYWGQGTLVTVSS
VL: DIQMTQSPSSLSASVGDRVTITCRASQSILSYLNWYQQKPGKAPKLLIYAATSRASGVPSRFSGSGSGTDFTLTISSLQPEDFATYYCQQSYDNPLTFGGGTKVEIK
B19: 367_A10 (antibody, V domains shown)
VH: EVQLLESGGGLVQPGGSLRLSCAASGFTFSSYGMNWVRQAPGKGLEWVAGINYNSGYTSYADSVKGRFTISRDNSKNTLYLQMNSLRAEDTAVYYCARGANWHDTHLDYWGQGTLVTVSS
VL: DIQMTQSPSSLSASVGDRVTITCRASQSIITYVNWYQQKPGKAPKLLIYAATSLASGVPSRFSGSGSGTDFTLTISSLQPEDFATYYCQQSYDLPLTFGGGTKVEIK
B20: 366_D03 (antibody, V domains shown)
VH: EVQLLESGGGLVQPGGSLRLSCAASGFTFDSYGMHWVRQAPGKGLEWVSSINYNGGYTGYADSVKGRFTISRDNSKNTLYLQMNSLRAEDTAVYYCARAANWHDTHLDYWGQGTLVTVSS
VL: DIQMTQSPSSLSASVGDRVTITCRASQSILSYVNWYQQKPGKAPKLLIYAATSRASGVPSRFSGSGSGTDFTLTISSLQPEDFATYYCQQSYDLPLTFGGGTKVEIK
B21: 367_A06 (antibody, V domains shown)
VH: EVQLLESGGGLVQPGGSLRLSCAASGFTFDSYGMNWVRQAPGKGLEWVASINYNGGYKGYADSVKGRFTISRDNSKNTLYLQMNSLRAEDTAVYYCARGANWHDTHLDYWGQGTLVTVSS
VL: DIQMTQSPSSLSASVGDRVTITCRASQSILSYVNWYQQKPGKAPKLLIYAATSRHSGVPSRFSGSGSGTDFTLTISSLQPEDFATYYCQQSYDTPLTFGGGTKVEIK

The experiment has as its target human Fc (human). The experiment can be described thus: ELISA, negative control.
In the case of B1, the optical density was 0.25 OD.

Turning to B2, the optical density amounted to 0.338 OD. For B3 the value was 0.371 OD; for B4, 0.374 OD; for B5, 0.271 OD. In the case of B6, the optical density was 0.272 OD. With B7 the figure was 0.319 OD; with B8, 0.295 OD; with B9, 0.33 OD. For B10 the value was 0.24 OD; for B11, 0.326 OD; for B12, 0.347 OD. For B13 the value was 0.252 OD. The molecule B14 returned an optical density of 0.243 OD. For B15 the value was 0.215 OD. For the molecule B16, the optical density was determined as 0.288 OD. For B17 the value was 0.319 OD; for B18, 0.347 OD. With B19 the figure was 0.315 OD; with B20, 0.318 OD; with B21, 0.378 OD.

For the origin of these results see patent US20210380703A1.
